Laboratory results published in the nanobody polyreactivity screen of Harvey et al. (2022).

Experiment: yeast display, Sf9 membrane polyspecificity reagent, FACS + sequencing; frameworks hold sequencing errors
Method in brief: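 Nanobodies from a synthetic yeast display library (Saccharomyces cerevisiae BJ5465), induced 36–48 hours with galactose, were stained 1 hour at 4 °C with 10% biotinylated, detergent-solubilized Sf9 membrane reagent, enriched on streptavidin microbeads, then FACS-sorted. Anti-HA (expression) and streptavidin (reagent binding) fluorescence set low and high (top ~1%) gates. Polyreactivity labels come from the gate of origin. Genes were colony-PCR amplified, MiSeq 2 × 250 sequenced and filtered by CDR length.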

QVQLEESGGGLVQAGGSLRLSCAASGSTSLKNAMGWYRQAPGKERELVAAISSGGSTYYADSVKGRFTISRDNAKNTVYLQINSLKPEDTAVYYCAAKYLRGLGYWGQGTQVTVSS
polyreactivity (PSR sort gate): high polyreactivity

QVQLVESGGGLVQAGGSLRLSCAASGSTFNKYAMGWYRQAPGKEREFVAAITSSGGRTYYADSVKGRFTISRDNAKNTVYLQMNSLKPEDTAVYYCAARSYTYTAPIYGYWGQGTQVTVSS
polyreactivity (PSR sort gate): high polyreactivity

QVQRVESGGGLVQAGGSLRLSCSASGFIFQLSAMGWYRQAPGTERELVAAITWRGGSTYYADSVKGRFTISRDNAKNTVYLQMYSLKPEDTAVYYCAASASWRGQRVPYGYWGQGTQVTVSS
polyreactivity (PSR sort gate): high polyreactivity

QVQLVESGGGLVQAGGSLRLSCAASGLIFRHYAMGWYRQAPGKERELVAVISSGAGTYYADSVKGRFTISRDNAKNTVYLQMISMKPEDTAVYYSARDLYYRYRYFITGLYDSWGQGTQVTVSS
polyreactivity (PSR sort gate): low polyreactivity

QVQIVESGGGLVQAGGSLRLTCAASGYIFTYYAMGWYRQAPWKERDLVAAISGSDGNTYYADSVKGRFTISRDNAKNTVYLQMNSLKPEDTAVYYCAKSGGLTFRSQSYDYWGQGTQVTVSS
polyreactivity (PSR sort gate): low polyreactivity

QVQLVESGGGLVQAGGSLRLSCAASGSIFGWYAMGWYRQAPGKERELVAAAIDYRDDSTYYADSVKGRFTISRDIAKNTVYLQMNSLKPEDTAVYYCAAEKDGDWRGYDYWGQGTQVTVSS
polyreactivity (PSR sort gate): low polyreactivity

QVHLVESGGGLVQAGGRLRLSCAASGSIFGYNAMGWYRQAPGKERELVAAISSTGGSTYYADSVKGRFTISRDNAKNTVYLQMNSLYPEDTAVYYCAKRGQSYFKGYDYWGQGTQVTVSS
polyreactivity (PSR sort gate): low polyreactivity

QVQLVESGGGLVQAGGSLRVSCAASGRTFGIYAMGWYRQAPGKEREFVAAISWSGTSTHYADSVKGRFTISRDNAKNTFYLQMNSLKPEDTAVYYCATRRSHYGKYDYWGQGTQVTVSS
polyreactivity (PSR sort gate): high polyreactivity

QVQLVESGGGLVQAGGSLRLSCAASGRIFTYYAMGWYRQAPGKERELVASITGSGGSTDYADSVKGRFTISLDNAKNTVYLQMNSLKPEDTAVYYCAADHSGVSRYDYWGQGTQVTVSS
polyreactivity (PSR sort gate): low polyreactivity

QVQLVESGGGLVQAGGRLRLSCAASGSIFAYYAMGSYRQAPGKERELVAAISSSGGSTTYADSVKGRFTISRDNAKYTVYLQMNSLKPDDTAVYYCNAAWRRSRYYNWGQGTQVTVSS
polyreactivity (PSR sort gate): high polyreactivity

QVQLVESGGGLVQAGGSLRLSCAASGSIIVYYAMGWYRQAPGKERELVAAIRVRGGSTYYADSVKGRFTISRDTAKNTVYLQMNSLKPEDTAVYYCATAGRYGRYRTNAYRSKYDYWGQGTQVTVSS
polyreactivity (PSR sort gate): high polyreactivity

QVHLVDSGGRLVQAGGSLRLSCSASGNNFPGYAMGLYRQAPGKEREFVATITSNDGTTYYADSVKGRFTISRDNAMNTFFLQMNSLKPEDTAVYYCASVVRQYGFDYLGQGTQVTVSS
polyreactivity (PSR sort gate): low polyreactivity

QVQLVESGGGLVQAGGSLRLSCAASGSIFGIYVMGWYRQAPGKERELVAGISTRGGSTYYADSVKGRFTISRDNAKNTVYLQMNSLKPEDTAVYYCAAVPASYRYPMYYWGQGTQVNVSS
polyreactivity (PSR sort gate): low polyreactivity

QVHLVESAAGLVQAGGSLRLSCDPSGFTFYAYPMGWYSQAPGKEREFVAAISSRGGRTYYADSVKGRFTISRDNAKNTVYLQMNSLKPEDTAVYYCNVPYYSFRALSSYYWGQGTQVTVSS
polyreactivity (PSR sort gate): high polyreactivity

QVQLVESGGGLVQAGGSLRLSCAASGYIFTYYAMGWYRQAPGKERELVAAISGSDGNTYYADSVKGRFTISRDNAKKTDYLEMISLKPEDTAVYYCAKSGGLTFRSQRYDYWGQGTQVNVSS
polyreactivity (PSR sort gate): low polyreactivity

QVQLVESGGGLVQAGGSLRLSCAASGSTFVYYAMGWYRQAPGKERELVAAITSGDSTYYADSVKGRFTISRDNAKNTVYLQMNSLKPEDTAVYYCAKRGGYKWIYGYWGQGTQVTVSS
polyreactivity (PSR sort gate): low polyreactivity

QVHLEESGGGLVQAGGSLRLSCAASGGTILAYAMGWYRQAPGKERELVAAITRRGTRTYYADSVKGRFTISLDNAKNTVYLQMNSLKPEVTAVFYCAVSGGFYWGQGTQVTVSS
polyreactivity (PSR sort gate): high polyreactivity

QVQLVESGGGLVQAGGSLRLSCAASGRIFQNYAMGWYRQAHGKERELVATISSGVSTYYADSVKGRFTISRDNAKNTVYLQMNSLKPEDTAVNYCAAYVPWFEMDYWGQGTQVTVSS
polyreactivity (PSR sort gate): low polyreactivity

QVQLVESGGGLVQAGGSLRLSCAASGSIFYGYAMGWYRPAPGKERELVAAINWSGGGTYYADSVKGRFTISRDNAKNTVYLQMNSLKPEDTAVYYCAAGHVVRRPYLIYDYWGQGTQVTVSS
polyreactivity (PSR sort gate): high polyreactivity

QVQLVESGGGLFQAGGSLRLSCAASGSIFGDYAMGWYRQAPGKERELVAAITSSGGITYYADSVKGRFTISRDNAKNTVYLQMNSLKPEDTAVYYCAAYGYGSNYRYTCYYYWGQGTQVTVSS
polyreactivity (PSR sort gate): low polyreactivity

QVQLVESGGGLVQAGGSLRLSCAASGSTFSSYAMGWYRQAPGKERELVAAITYSGGSTYYADSVKGRFTISRDNAKNTVYLQMNSLKPEDTAVYYCATRSLFWSFTYYYWGQGTQVTVSS
polyreactivity (PSR sort gate): low polyreactivity

QVQLVESGGGLVQAGGSLRLSCAASGRTFYYYYTMGWYRQAPGKERELVAAISRSGSTNYADSVKGRFTISRDNAKNTVYLQMNSLKPEDTAVYYCARSYRSDGSRFGYWGQGTQVTVSS
polyreactivity (PSR sort gate): low polyreactivity

QVQLVESGGGIVQAGGSLRLSCAASGNTFHTYAMGWNRQAPVKERELVAAISSRGVGTYYADSVKGRFTISRDNAKNTVYLQMNSLKPEDTAVYYCAARHHPEYYYWGQGTQVTVSS
polyreactivity (PSR sort gate): high polyreactivity

QVQLVESGGGLVQAGGSLRLSCAASGFTFPRNVMGWYRQAPGKERELVATISSGGRTNYADSVKGRFTISRDNAKNTVYLQMNSLKPEDTAVYYCAARVYTYYYDLHKRYYWGQGTQVTVSS
polyreactivity (PSR sort gate): high polyreactivity

QVQLVESRGGLVQAGGSLRLSCAASGLTFLYNAMGWYRQAPGKERELVAAISQSAGSTYYADSVKGRFTISRDNAKNTVYLQMNSLKPEDTAVYYCAAEWDTPDLVIYDYWGQGTQVTVSS
polyreactivity (PSR sort gate): low polyreactivity

QVQLVESGGGLVQAGGSLRLSCAASGGIFYYYTMGWYRQAPGKERELVAAINWSGGSTYYADSVKGRFTISRDNAKNTVYLQMNSLKPEDTAVYYCNAVYRHPVTYGYWGQGTQVTVSS
polyreactivity (PSR sort gate): high polyreactivity

QDQLVESGGGLVQAGGSLRLSCAASGFTFYRNAMGWYRQAPGKERELVAAISRGGRTYYADSVKGRFTISRDNAKNTVYLQMNSLNPEDTAVYYCAVGYSGYVSSMDYWGQGTQVTVSS
polyreactivity (PSR sort gate): high polyreactivity

QVQLVESGGGLVQAGGSLRISCAASGRIFGDNGMGWYSQAPGKERELVTYADSVKGRFTISRDNAKNTVYLQMNSLKPEDTAVYYCYKDPPRFSGLDENYWGQGSQVTVSS
polyreactivity (PSR sort gate): low polyreactivity

QVQLVESGGGLVQAGGSLRLSCAASGRIFADNGMGWYRQAPGKERELVASITSSGGDTYYADSVKGRFTISRDNAKNTVYLQMNSLKPEDTAVYYCATEFSWLFYGVWVVTFGDDYWGQGTQVTVSS
polyreactivity (PSR sort gate): low polyreactivity

QVQHVESVGGLVQAGGSLPLSGASSGFIFRKNAMGWYRQATGKEREFVAAISRRGGCTYYADSVKGRFTISRDNAKNTVYLQMNSLKPEDTAVYYCNAELYDVGSHEYDYWVQGTQVTVSS
polyreactivity (PSR sort gate): high polyreactivity

QVQLEESGGGLVQAGGSLRLSCAASGRIFHKNAMGWYRQAPGKEREFVATISSRGGSTYYADSVKGRFTISRDNSKNTVYLQMNSLKPEDSAVYYCAAGWYRNDWGQRLHTYYYWGQGTQVTVSS
polyreactivity (PSR sort gate): high polyreactivity

QVQLVESGGGLVQAGGSLRLSCAASGRTCKYYAMGWYRQAPGKERELVATITWSGTSTNNADSVKGRFTISRDNAKNTVYLQMNSLKPEETAVYYCAARSKRRNYDYWGQGTQVTVSS
polyreactivity (PSR sort gate): high polyreactivity
